Source: article PMC8558862, “Imaging of Dysfunctional Elastogenesis in Atherosclerosis Using an Improved Gadolinium-Based Tetrameric MRI Probe Targeted to Tropoelastin” (Journal of Medicinal Chemistry, 2021)
Ends that are not written are not given here. (Gd-DOTA)4‑MI = maleimide-bearing lysine-based tetramer of four Gd(III)-DOTA-monoamide chelates

Assays:
[1] = tested on: atherosclerotic plaques in the brachiocephalic artery of ApoE–/– mice; assay: In vivo LGE MRI at 3 T in atherosclerotic ApoE–/– mice; settings: 0.2 mmol kg^–1 i.v.
Description: The Gd4-TESMA probe was assessed for its ability to enhance the MRI signal within plaques in the brachiocephalic artery of an ApoE^–/– murine model of plaque progression and in control nonatherosclerotic mice. For these studies, atherosclerotic ApoE^–/– mice were scanned after the tandem administration of Gd-ESMA, Gd-TESMA (24 h after the Gd-ESMA administration), and finally Gd4-TESMA (24 h after the Gd-TESMA administration; Supporting Information Figure S1). […] All molecular probes were injected at a dose of 0.2 mmol kg^–1 (corresponding to the same dose of injected gadolinium for Gd-ESMA and Gd-TESMA and to a dose of 0.8 mmolGd kg^–1 for Gd4-TESMA). […]
Following a 3D GRE scout scan, contrast-enhanced angiography images were acquired for visualization of the aortic root, aortic arch, and brachiocephalic and carotid arteries with a FOV = 30 × 30 × 8 mm, matrix = 200 × 200, in-plane resolution = 0.15 × 0.15 mm (reconstructed = 0.10 × 0.10 mm), slice thickness = 0.5 mm, TR/TE = 15/6.1 (ms), and flip angle = 40°. […] Late gadolinium enhanced images were acquired with an inversion-recovery 3D fast gradient echo sequence every 30 min for up to 2 h postinjection of the contrast agent and were used to visualize and quantify contrast uptake.

[2] = Relaxometry: water proton longitudinal relaxivity; assay type: physicochemical; settings: 298 K, 3.8 mM HEPES, 150 mM NaCl, pH 7.2
Description: The relaxivity per gadolinium of Gd4-TESMA is 8.5 ± 0.2 mM^–1 s^–1 (at 20 MHz, 298 K, 3.8 mM HEPES, 150 mM NaCl, pH 7.2; Table 1), while that of Gd-TESMA under the same conditions cannot be defined uniquely as it changes with the concentration of the complex.
The water proton longitudinal relaxation rates as a function of the magnetic field strength were measured in aqueous solutions using a Fast Field-Cycling Stelar SmarTracer relaxometer (Stelar s.r.l., Mede (PV), […] MHz proton Larmor frequencies). The relaxometer operates under computer control with an absolute uncertainty in 1/T1 of 1%. […] The ^1H T1 relaxation times were acquired by the standard inversion recovery method with a typical 90° pulse width of 3.5 μs, 16 experiments, and 4 scans. The temperature was controlled using a Stelar VTC-91 airflow heater equipped with a calibrated copper–constantan thermocouple (uncertainty of ±0.1 °C).
MRI data are presented as median ± interquartile range (IQR). […] P values <0.05 were considered statistically significant.

[3] = 1H NMRD profile fitting (SBM and Freed theory); assay type: physicochemical; settings: HEPES buffer pH 7.2; Gd-TESMA NMRD at 2.3 mM
Description: Figure 4 ^1H NMRD profiles showing the millimolar relaxivity per gadolinium r1p of Gd-TESMA (2.3 mM, solid symbols) and Gd4-TESMA (1.3 mM, open symbols) in the HEPES buffer (pH 7.2) at 298 K (circles) and 310 K (squares). The solid line represents the best fitting of the experimental points at 310 K to the SBM and Freed theory of paramagnetic relaxation. The following parameters were kept fixed: water diffusion coefficient (D) = 3.1 10^–5 cm^2 s^–1; distance between Gd(III) and the inner sphere water protons (r) = 3.1 Å; number of inner sphere water molecules (q) = 1; and distance of the closest approach of outer-sphere water protons = 3.8 Å. Curve fitting converged to the following: correlation time for molecular reorientation (τR) = 170 ps; residence lifetime of the inner sphere water molecule (τM) = 460 ns; correlation time for electronic relaxation (τv) = 47 ps; and zero-field splitting energy (Δ^2) = 1.3 10^19 s^–2. […]
The water proton longitudinal relaxation rates as a function of the magnetic field strength were measured in aqueous solutions using a Fast Field-Cycling Stelar SmarTracer relaxometer (Stelar s.r.l., Mede (PV), Italy) over a continuum of magnetic field strengths from 0.00024 to 0.25 T (corresponding to 0.01–10 MHz proton Larmor frequencies). […]

[4] = biological target: T1, immobilized human recombinant tropoelastin (Homo sapiens, UniProt P15502); assay: Surface plasmon resonance binding affinity (kinetic mode, 1:1 Langmuir model); settings: SPR Biacore 2000, CM5 chip, 25 °C, HEPES running buffer pH 7.4; mean ± SD of triplicate measurements
T1 construct: purchased Advanced BioMatrix 5052-1MG
T1 sequence (P15502 27-786): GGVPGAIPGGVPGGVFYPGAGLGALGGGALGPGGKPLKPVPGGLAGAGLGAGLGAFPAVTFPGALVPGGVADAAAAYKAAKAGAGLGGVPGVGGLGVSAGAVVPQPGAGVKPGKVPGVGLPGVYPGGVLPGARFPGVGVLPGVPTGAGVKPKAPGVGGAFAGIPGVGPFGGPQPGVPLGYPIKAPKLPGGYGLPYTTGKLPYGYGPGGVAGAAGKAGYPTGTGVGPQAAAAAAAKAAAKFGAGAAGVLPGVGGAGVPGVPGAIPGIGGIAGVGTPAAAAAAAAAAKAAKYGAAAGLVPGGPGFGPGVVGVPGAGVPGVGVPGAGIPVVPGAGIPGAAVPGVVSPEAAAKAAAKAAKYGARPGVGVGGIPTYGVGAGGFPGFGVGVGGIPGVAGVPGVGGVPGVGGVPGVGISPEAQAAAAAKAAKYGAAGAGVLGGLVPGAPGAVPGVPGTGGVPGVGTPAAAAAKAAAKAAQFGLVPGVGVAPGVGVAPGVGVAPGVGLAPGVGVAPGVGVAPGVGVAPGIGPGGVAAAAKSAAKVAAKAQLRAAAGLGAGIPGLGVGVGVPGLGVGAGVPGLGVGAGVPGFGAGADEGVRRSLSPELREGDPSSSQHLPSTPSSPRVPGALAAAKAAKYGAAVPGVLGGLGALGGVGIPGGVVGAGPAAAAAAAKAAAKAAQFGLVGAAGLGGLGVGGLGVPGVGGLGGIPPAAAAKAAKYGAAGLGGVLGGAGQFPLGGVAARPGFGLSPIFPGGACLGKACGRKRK
Description: The binding affinity of Gd-TESMA and Gd4-TESMA to tropoelastin was assessed by surface plasmon resonance (SPR) under the kinetic affinity mode.
The binding affinity between tropoelastin (human recombinant tropoelastin, Advanced BioMatrix, Cat. No. 5052-1MG, Batch No. 7932) and Gd4-TESMA or Gd-TESMA was assessed by surface plasmon resonance (SPR) on a Biacore 2000 instrument (Cytiva). The instrument was equipped with a CM5 sensor chip carrying carboxymethylated dextran (Cytiva). First, the ligand was immobilized on the sensor chip surface by amine coupling: the flow cell was activated for 7 min by a 1-ethyl-3-(3-dimethylaminopropyl)carbodiimide hydrochloride (EDC)/N-hydroxysuccinimide (NHS) mixture. Then, tropoelastin was injected at 200 μM in a 10 mM sodium acetate buffer (pH 4) with a flow rate of 5 μL min^–1 to reach an immobilization level corresponding to 3500–5000 resonance units (R.U.). The remaining active sites were blocked by 1 M of ethanolamine-HCl (pH 8.5) for 7 min. As a control for nonspecific interaction, another flow cell on the CM5 sensor chip was treated in the same manner but without adding tropoelastin. […] The equilibrium dissociation constant (KD) and the kinetic association and dissociation rate constants (ka and kd) were determined by curve-fitting using the 1:1 Langmuir binding model implemented in the Biaevaluation software 4.1.1.[48] […]

[5] = Serum stability by RP-HPLC; settings: male, human, 50% (v/v) aqueous pooled human serum
Description: The stabilities of Gd4-TESMA and the parent VVGS-peptide in human serum were evaluated by HPLC (Figure 6). Compounds were incubated up to 120 min, and aliquots were taken at different times: 0, 35, and 120 min.
The serum stabilities of Gd4-TESMA and its parent peptide (VVGS-peptide) were determined in 50% (v/v) aqueous pooled serum from human male AB plasma, which was purchased from Sigma-Aldrich (Milan, Italy). Samples were dissolved in water (6.6 mM), diluted in serum (previously centrifuged at 8000 rpm for 15 min at 4 °C) at a final concentration of 0.6 mM (220 μL), and subsequently incubated at 37 °C. Aliquots (6 μL) taken after 0, 35, and 120 min were diluted in water at a final concentration of 0.06 mM. The samples were analyzed by RP-HPLC using an Atlantis dC18 column, 5 μm, 4.6 × 150 mm, as described in ref ([47]). The amount of intact compound was estimated by integrating the area under the corresponding elution peak monitored at 210 nm. Five replicate experiments for each compound were carried out. The […] (HPLW peptide),[47] unrelated to TESMA, was used as a positive control.

[6] = biological target: T2, human recombinant tropoelastin (human, UniProt P15502 27-786); assay: SPR; Biacore 2000; tropoelastin immobilised on a CM5 chip by amine coupling (3500-5000 R.U.); analyte injected at 20 uL/min for 3 min at 25 °C in HEPES running buffer (pH 7.4, HBS-P) or 10 mM HEPES; control flow cell subtracted; 1:1 Langmuir fit; triplicate; settings: both partners purified
T2 construct: tropoelastin (soluble elastin precursor), human, recombinant; also called TE; source: bought: Advanced BioMatrix (Cat. No. 5052-1MG, Batch No. 7932)
T2 sequence (looked up): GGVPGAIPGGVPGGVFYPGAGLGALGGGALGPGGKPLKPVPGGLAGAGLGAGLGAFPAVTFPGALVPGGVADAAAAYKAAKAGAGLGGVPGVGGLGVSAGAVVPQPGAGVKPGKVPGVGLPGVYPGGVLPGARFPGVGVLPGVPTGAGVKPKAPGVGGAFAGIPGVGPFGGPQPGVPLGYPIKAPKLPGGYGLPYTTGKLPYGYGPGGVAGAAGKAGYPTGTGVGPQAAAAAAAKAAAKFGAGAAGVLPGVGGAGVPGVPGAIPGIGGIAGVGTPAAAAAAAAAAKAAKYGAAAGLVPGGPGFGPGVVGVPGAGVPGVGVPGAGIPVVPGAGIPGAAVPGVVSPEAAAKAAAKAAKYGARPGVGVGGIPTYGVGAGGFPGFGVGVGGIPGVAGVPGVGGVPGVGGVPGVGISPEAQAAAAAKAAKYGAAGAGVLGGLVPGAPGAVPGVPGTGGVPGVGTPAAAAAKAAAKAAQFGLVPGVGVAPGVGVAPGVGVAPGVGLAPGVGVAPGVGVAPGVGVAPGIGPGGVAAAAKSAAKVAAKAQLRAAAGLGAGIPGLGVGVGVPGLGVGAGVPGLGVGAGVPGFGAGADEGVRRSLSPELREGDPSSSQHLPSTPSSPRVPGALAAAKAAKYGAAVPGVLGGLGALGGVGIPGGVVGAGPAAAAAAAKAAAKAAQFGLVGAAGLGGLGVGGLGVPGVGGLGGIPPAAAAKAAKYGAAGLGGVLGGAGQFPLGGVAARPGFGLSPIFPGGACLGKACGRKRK

For C-GAESAPLVSSVQSPD [Gd4-scTESMA], the “accumulation within plaques” value ([1]; ApoE–/– mice, LGE MRI, in comparison to Gd4-TESMA) was “low/negligible accumulation within plaques”.

In the case of “Gd-TESMA: single Gd-DOTA monoamide unit conjugated with a 15-residue peptide sequence (VVGS-peptide); monomeric counterpart, purchased (VVGSPSAQDEASPLS; also: single Gd-DOTA monoamide unit conjugated, site not given here) [reference compound]”, the “relaxivity per gadolinium at 18 μM probe” value ([2]; 18 μM probe, 20 MHz) is reported as 6.1 mM^–1 s^–1, the “relaxivity r1 at 20 MHz, probe at 1 mM” value ([2]; 1 mM probe, 20 MHz, mean ± SD) is reported as 10.0 ± 0.3 mM^–1 s^–1 and the “relaxivity r1 at 125 MHz, probe at 1 mM” value ([2]; 1 mM probe, 125 MHz, mean ± SD) is reported as 10.4 ± 0.3 mM^–1 s^–1. For the same molecule, the “relaxivity per gadolinium at 2.3 mM probe” value ([2]; 2.3 mM probe, 20 MHz) was 12.4 mM^–1 s^–1, the “aggregation (inferred from concentration dependence of relaxivity and NMRD profile)” value [3] was “self-assembled into aggregates with high polydispersity at relatively high concentrations” and the “vessel wall-to-blood CNR at 0.5 h postinjection” value ([1]; ApoE–/– mice on HFD 16 weeks, 3 T LGE MRI, 0.5 h, median (IQR)) was 6.75. For the same molecule, the “dissociation rate constant kd” value [4] was 2.3 × 10^–2 ± 0.5 × 10^–2 s^–1.

In the case of VVGSPSAQDEASPLS [VVGS-peptide], the half-life at 0.6 mM [5] is reported as about 45 min and the remaining at 2 h, 0.6 mM [5] is reported as about 20%.

B1: Gd-TESMA (peptide)
peptide: VVGSPSAQDEASPLS
modifications: also: single Gd-DOTA monoamide unit conjugated, site not given here
notes: also called monomeric Gd-TESMA probe; source: bought: For Peptide Protein Research Limited (Fareham, UK)
B1 showed a Kd [6] of 28 µM, a koff [6] of 0.023 s⁻¹ and a kon [6] of 880 M⁻¹ s⁻¹.

B2: Gd4-TESMA (peptide)
peptide: C((Gd-DOTA)4‑MI)VVGSPSAQDEASPLS
modifications: also: Gd(III) chelates, thiol/maleimide conjugation
notes: also called tetrameric Gd4-TESMA probe; source: synthetic peptide (Fmoc SPPS), reacted with [Gd-DOTA]4-MI, purified by semipreparative HPLC
B2 showed a Kd [6] of 41 µM.
